{"source": "IntAct's records for PubMed 18020948", "parents": {"B1": {"name": "Integrin alpha-L (Homo sapiens), P20701 (parent)", "chain": "MKDSCITVMAMALLSGFFFFAPASSYNLDVRGARSFSPPRAGRHFGYRVLQVGNGVIVGAPGEGNSTGSLYQCQSGTGHCLPVTLRGSNYTSKYLGMTLATDPTDGSILACDPGLSRTCDQNTYLSGLCYLFRQNLQGPMLQGRPGFQECIKGNVDLVFLFDGSMSLQPDEFQKILDFMKDVMKKLSNTSYQFAAVQFSTSYKTEFDFSDYVKRKDPDALLKHVKHMLLLTNTFGAINYVATEVFREELGARPDATKVLIIITDGEATDSGNIDAAKDIIRYIIGIGKHFQTKESQETLHKFASKPASEFVKILDTFEKLKDLFTELQKKIYVIEGTSKQDLTSFNMELSSSGISADLSRGHAVVGAVGAKDWAGGFLDLKADLQDDTFIGNEPLTPEVRAGYLGYTVTWLPSRQKTSLLASGAPRYQHMGRVLLFQEPQGGGHWSQVQTIHGTQIGSYFGGELCGVDVDQDGETELLLIGAPLFYGEQRGGRVFIYQRRQLGFEEVSELQGDPGYPLGRFGEAITALTDINGDGLVDVAVGAPLEEQGAVYIFNGRHGGLSPQPSQRIEGTQVLSGIQWFGRSIHGVKDLEGDGLADVAVGAESQMIVLSSRPVVDMVTLMSFSPAEIPVHEVECSYSTSNKMKEGVNITICFQIKSLIPQFQGRLVANLTYTLQLDGHRTRRRGLFPGGRHELRRNIAVTTSMSCTDFSFHFPVCVQDLISPINVSLNFSLWEEEGTPRDQRAQGKDIPPILRPSLHSETWEIPFEKNCGEDKKCEANLRVSFSPARSRALRLTAFASLSVELSLSNLEEDAYWVQLDLHFPPGLSFRKVEMLKPHSQIPVSCEELPEESRLLSRALSCNVSSPIFKAGHSVALQMMFNTLVNSSWGDSVELHANVTCNNEDSDLLEDNSATTIIPILYPINILIQDQEDSTLYVSFTPKGPKIHQVKHMYQVRIQPSIHDHNIPTLEAVVGVPQPPSEGPITHQWSVQMEPPVPCHYEDLERLPDAAEPCLPGALFRCPVVFRQEILVQVIGTLELVGEIEASSMFSLCSSLSISFNSSKHFHLYGSNASLAQVVMKVDVVYEKQMLYLYVLSGIGGLLLLLLIFIVLYKVGFFKRNLKEKMEAGRGVPNGIPAEDSEQLASGQEAGDPGCLKPLHEKDSESGGGKD", "partner": "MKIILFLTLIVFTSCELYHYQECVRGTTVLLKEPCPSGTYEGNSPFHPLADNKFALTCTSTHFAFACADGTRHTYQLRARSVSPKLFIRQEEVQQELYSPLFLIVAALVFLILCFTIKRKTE"}}}
{"variants_of": "B1", "conditions": "with ns7a_sars ns7a"}
{"variant": "K288C;K293C", "effect of a mutation on the interaction": "increasing interaction strength"}
